13 molecules from patent US20250382355A1 (Merck Sharp & Dohme, published 2025) can be followed below.

B1: 9B2 VHH (VHH)
VHH: QVQLVESGGGLVQPGGSLRLSCAASGFTLDNYAIGWFRQAPGKEREGVSCISSSDGDTQYADSVKGRFTISRDNAKNTVYLQMNSLKPEDTAVYYCAVEKVYARSWFFHLCSELDFGSWGQGTQVTVSS
B2: 10B8 VHH (VHH)
VHH: QVQLVESGGGLVQPGGSLRLSCAASGITLDYYAIAWFRQAPGKEREGVSCFCSSDGDIRYADSVKGRFTISRDNAKNTVYLQMNSLKPEDTAVYYCATERVYSSTWFFHRYSELDFGSWGRGTQVTVSS
B3: 5A6 VHH (VHH)
VHH: QVQLVESGGGLAQAGGSLRLSCATSGLTFSMSAMGWFRQAPGNEREFVGVINWNGGSSRYADSVRGRFTISRDNAKNTVYLQMNSLKPEDTGVYYCAADALNIGTGEVNPRLYDYWGQGTQVMVSS
B4: 15H7 VHH (VHH)
VHH: QVQLVESGGRLVQAGGSLRLSCAAPGRTFRNLTLGWFRQAPGKEREFVASTSWPDDEMTYYTDSVKGRFTISRDNAKNTVYLQMNSLKPEDTAVYYCAAASWSGRSTLSYDYDYWGQGTQVTVST
B5: 13C8 VHH (VHH)
VHH: QVQLVESGGGLVQAGGSLRLSCAASGRTVNKYMTGWFRQTPGKEREFVASIDWSSTTTHYANSVKGRFTISRDKVKNTVYLQMNGLKPEDTAVYYCAAHQDSSYGYTILPIDYDSWGQGTQVTVSS
B6: 1A11 VHH (VHH)
VHH: QVQLVESGGGLVQAGGSLRLSCEVSGSIYSINSMGWYRQAPGKQRELVAGIVSDGRINYADSVKGRFTISRAKNTVYLQMNSLKPEDTAVYYCAADRAFVYAGDYDYLGQGTQVTVSS
B7: 1E4 VHH (VHH)
VHH: QVLLVESGGGLVQAGGLLRLACSASGRTFTENVMGWFRQAPGKEREFVAAINWNTGSTYYSDSRKGRFTISKDNAKNTMFLQINNLKPEDTAVYYCGGTSSSYYYIGEFIPDYWGQGTQVTVSS
B8: 8E9 VHH (VHH)
VHH: QVQLVESGGGLVEAGGSLRLSCVASGSSSSINAMGWYRQAPGKQRELVASISHDGETKYANSVKGRFTISRGNAKNTIYLQMNSLKPEDTAVYYCVGDVAWVVVAGEYDYWGQGTQVTVSS
B9: 5D7 VHH (VHH)
VHH: QVQLVESGGGLVQAGGSLRLSCAASGRTGSRYIMGWFRQAPGKEREFVAAINWRGDSTYYADSVKGRFTIARDNAKNTAYLQMNSLKPEDTAVYYCVADRGESYYYTRSTEYTYWGQGTQVTVSS
B10: 3D4 VHH (VHH)
VHH: QVQLVESGGGLVQPGGSLRLSCAASGFTLDLNSIGWFRQAPGKEREGVSCISPSGSRMHYADSVKGRFTISRDNAKNTVYLQMNSLKPEDTAVYYCATGSPSYHYCSMYGLEYDSWGQGTQVTVPS
B11: 15H1 VHH (VHH)
VHH: QVQLVESGGGLAQAGGSLRLSCASSGLIFSGSAMGWFRQAPGKEREFVGVISWNGRTTYADSVKGRFTISRDDAVNMVWLQMNNLKPEDTAVYYCAADHLNYGSGDVNPRTYDYWGQGTQVTVSS
B12: 11F8 VHH (VHH)
VHH: QVQLVESGGGLVQAGGSLRLSCAASGRTVGYYAVGWFRQAPGKERDFVAAISWSGRNTNYADSVTGRFTIFRDNAKNTVDLQMNSLKPEDTAVYYCAADYWNYGSGSEVPNNYDTWGQGTQVTVSS
B13: 19E10 VHH (VHH)
VHH: QVQLVESGGGLVQPGGSLRLSCVASGSTISINSMGWYRQAPGKAREMVATITNDGPIKYADPVKGRFTISRDNPKNTVYLQMNSLKPEDTAVYYCVADRAYWLAGEWEYWGQGTQVTVSS

The target in this experiment is SARS-CoV-2 prefusion-stabilized spike protein (SARS-CoV-2-PreS) (SARS-CoV-2, UniProt P0DTC2 14-1208). Briefly: Biacore, apparent affinity.
Regarding B1, the Kd is 0.61 nM.

For B2, the Kd is under 0.2 nM.

Regarding B3, the Kd is 0.46 nM.

With B4, the Kd amounted to 0.33 nM.

As to B5, the Kd was determined as 12 nM.

As for B6, the Kd is under 0.2 nM.

With B7, the Kd turned out to be 0.25 nM.

On to B8, for which the Kd was determined as 5.7 nM.

In the case of B9, the Kd came out at 1.5 nM.

As to B10, the Kd was under 0.2 nM.

Regarding B11, the Kd stood at 0.6 nM.

With B12, the Kd was found to be 0.95 nM.

Consider B13, for which the Kd is 0.73 nM.
